{"source": "patent US20240058465A1", "about": "(SUTRO BIOPHARMA, published 2024)", "binders": {"B1": {"name": "SRP2188-A02 (antibody, IgG1, V domains shown)", "VH": "EVQLVESGGGLVQPGGSLRLSCAASGFNIKSYDIHWVRQAPGKGLEWVGWINPEDGDTYYADSVKGRFTISADTSKNTAYLQMNSLRAEDTAVYYCARDFGVFDYWGQGTLVTVSS", "VL": "not shown", "notes": "IgG1 with trastuzumab LC; HIS- and FLAG-tagged; cell-free expressed"}, "B2": {"name": "SRP2188-B01 (antibody, IgG1, V domains shown)", "VH": "B1 VH with K30N, Y32H, E54D, F100Y, F103L", "VL": "not shown", "notes": "as for B1"}, "B3": {"name": "SRP2188-D02 (antibody, IgG1, V domains shown)", "VH": "B1 VH with K30S, S31D, W50G, N52D, D57A, Y59D, F100Y", "VL": "not shown", "notes": "as for B1"}, "B4": {"name": "SRP2188-C02 (antibody, IgG1, V domains shown)", "VH": "B1 VH with K30E, S31R, E54D, M83T, N84K, F100Y", "VL": "not shown", "notes": "as for B1"}, "B5": {"name": "SRP2188-F03 (antibody, IgG1, V domains shown)", "VH": "B1 VH with K30S, S31D, G49S, W50G, N52D, E54D, D57S, Y59D, F100Y", "VL": "not shown", "notes": "as for B1"}, "B6": {"name": "SRP2188-D07 (antibody, IgG1, V domains shown)", "VH": "B1 VH with K30S, S31D, Y32F, G49V, W50G, N52D, E54T, D57A, Y59D, F100Y", "VL": "not shown", "notes": "as for B1"}, "B7": {"name": "SRP2188-F09 (antibody, IgG1, V domains shown)", "VH": "B1 VH with G10D, K30R, S31D, G49S, W50A, N52D, E54N, D57S, Y59D, F100Y", "VL": "not shown", "notes": "as for B1"}, "B8": {"name": "SRP2188-E10 (antibody, IgG1, V domains shown)", "VH": "B1 VH with K30G, S31D, Y32F, W50G, N52D, E54R, D57A, Y59D, F100Y", "VL": "not shown", "notes": "as for B1"}, "B9": {"name": "SRP2188-D10 (antibody, IgG1, V domains shown)", "VH": "B1 VH with K30S, S31D, W50R, N52D, E54R, D57A, Y59D, F100Y", "VL": "not shown", "notes": "as for B1"}, "B10": {"name": "SRP2188-F04 (antibody, IgG1, V domains shown)", "VH": "EVQLVESGGSLVQPGGSLRLSCAASGFNISDFDIHWVRQAPGKGLEWVSGIDPDDGATDYADSVKGRFTISADTSKNTAYLQMNSLRAEDTAVYYCARDYGVFDYWGQGTLVTVSS", "VL": "not shown", "notes": "as for B1"}, "B11": {"name": "SRP2188-B08 (antibody, IgG1, V domains shown)", "VH": "B1 VH with K30D, E54D, Y59F, N84D, F100Y", "VL": "not shown", "notes": "as for B1"}, "B12": {"name": "SRP2188-A08 (antibody, IgG1, V domains shown)", "VH": "B1 VH with K30H, S31N, Y32F, E54F, Q82R, V93A, F100Y", "VL": "not shown", "notes": "as for B1"}, "B13": {"name": "SRP2188-B04 (antibody, IgG1, V domains shown)", "VH": "B1 VH with K30T, S31W, E54D, F100Y", "VL": "not shown", "notes": "as for B1"}, "B14": {"name": "SRP2188-E02 (antibody, IgG1, V domains shown)", "VH": "B10 VH with S10G, S30P, F32Y, D33E, S49G, D52E, D54H, A57S, F103Y", "VL": "not shown", "notes": "as for B1"}, "B15": {"name": "SRP2188-G04 (antibody, IgG1, V domains shown)", "VH": "B10 VH with S10G, S30F, F32Y, S49G, D54R, A57S, Y60H, F103Y", "VL": "not shown", "notes": "as for B1"}, "B16": {"name": "SRP2188-F07 (antibody, IgG1, V domains shown)", "VH": "B10 VH with S10G, F32Y, S49G, D54N, A57S, Y60H, T78M", "VL": "not shown", "notes": "as for B1"}}, "note": "Substitutions are numbered along the chain they refer to.", "data": [{"biological_target": "T1, human ROR1 (hROR1) expressed on cells (human, UniProt Q01973 30-937)", "assay": "cell-based or functional assay", "units": {"Mino Nb-PBD, drug-conjugated 2° antibody Cell Killing IC50": "nM", "Mino Nb-PBD, drug-conjugated 2° antibody Cell Killing Span": "%"}, "values": [{"binder": "B1", "Mino Nb-PBD, drug-conjugated 2° antibody Cell Killing IC50": 0.0007, "Mino Nb-PBD, drug-conjugated 2° antibody Cell Killing Span": 65}, {"binder": "B2", "Mino Nb-PBD, drug-conjugated 2° antibody Cell Killing IC50": 0.00069, "Mino Nb-PBD, drug-conjugated 2° antibody Cell Killing Span": 75}, {"binder": "B3", "Mino Nb-PBD, drug-conjugated 2° antibody Cell Killing IC50": 0.0014, "Mino Nb-PBD, drug-conjugated 2° antibody Cell Killing Span": 72}, {"binder": "B4", "Mino Nb-PBD, drug-conjugated 2° antibody Cell Killing IC50": 0.01, "Mino Nb-PBD, drug-conjugated 2° antibody Cell Killing Span": 73}, {"binder": "B5", "Mino Nb-PBD, drug-conjugated 2° antibody Cell Killing IC50": 0.0011, "Mino Nb-PBD, drug-conjugated 2° antibody Cell Killing Span": 71}, {"binder": "B6", "Mino Nb-PBD, drug-conjugated 2° antibody Cell Killing IC50": 0.0017, "Mino Nb-PBD, drug-conjugated 2° antibody Cell Killing Span": 70}, {"binder": "B7", "Mino Nb-PBD, drug-conjugated 2° antibody Cell Killing IC50": 0.0018, "Mino Nb-PBD, drug-conjugated 2° antibody Cell Killing Span": 59}, {"binder": "B8", "Mino Nb-PBD, drug-conjugated 2° antibody Cell Killing IC50": 0.00099, "Mino Nb-PBD, drug-conjugated 2° antibody Cell Killing Span": 73}, {"binder": "B9", "Mino Nb-PBD, drug-conjugated 2° antibody Cell Killing IC50": 0.001, "Mino Nb-PBD, drug-conjugated 2° antibody Cell Killing Span": 65}, {"binder": "B10", "Mino Nb-PBD, drug-conjugated 2° antibody Cell Killing IC50": 0.00072, "Mino Nb-PBD, drug-conjugated 2° antibody Cell Killing Span": 71}, {"binder": "B11", "Mino Nb-PBD, drug-conjugated 2° antibody Cell Killing IC50": 0.0062, "Mino Nb-PBD, drug-conjugated 2° antibody Cell Killing Span": 71}, {"binder": "B12", "Mino Nb-PBD, drug-conjugated 2° antibody Cell Killing IC50": 0.02, "Mino Nb-PBD, drug-conjugated 2° antibody Cell Killing Span": 75}, {"binder": "B13", "Mino Nb-PBD, drug-conjugated 2° antibody Cell Killing IC50": 0.0012, "Mino Nb-PBD, drug-conjugated 2° antibody Cell Killing Span": 73}, {"binder": "B14", "Mino Nb-PBD, drug-conjugated 2° antibody Cell Killing IC50": 0.00075, "Mino Nb-PBD, drug-conjugated 2° antibody Cell Killing Span": 76}]}, {"biological_target": "T1, human ROR1 (hROR1) expressed on cells", "assay": "flow cytometry, HCT116-hROR1 cells", "units": {"Bmax (MFI)": "MFI", "Kd": "nM"}, "values": [{"binder": "B1", "Bmax (MFI)": 9390, "Kd": 0.03}, {"binder": "B15", "Bmax (MFI)": 8990, "Kd": 0.02}, {"binder": "B2", "Bmax (MFI)": 9470, "Kd": 0.04}, {"binder": "B16", "Bmax (MFI)": 9870, "Kd": 0.03}, {"binder": "B3", "Bmax (MFI)": 10000, "Kd": 0.04}, {"binder": "B4", "Bmax (MFI)": 9920, "Kd": 0.13}, {"binder": "B5", "Bmax (MFI)": 10100, "Kd": 0.04}, {"binder": "B6", "Bmax (MFI)": 8990, "Kd": 0.04}, {"binder": "B7", "Bmax (MFI)": 8760, "Kd": 0.02}, {"binder": "B8", "Bmax (MFI)": 9120, "Kd": 0.04}, {"binder": "B9", "Bmax (MFI)": 9070, "Kd": 0.05}, {"binder": "B10", "Bmax (MFI)": 10000, "Kd": 0.03}, {"binder": "B11", "Bmax (MFI)": 9210, "Kd": 0.09}, {"binder": "B12", "Bmax (MFI)": 8130, "Kd": 0.18}, {"binder": "B13", "Bmax (MFI)": 9660, "Kd": 0.05}, {"binder": "B14", "Bmax (MFI)": 10500, "Kd": 0.07}]}, {"biological_target": "T2, human ROR1-ECD (human, UniProt Q01973 30-406)", "T2 construct": "Bought protein; also called hROR1; ROR1-extracellular domain", "assay": "SPR (Biacore), antibody captured by anti-Fc, human ROR1-ECD analyte", "method": "Anti-Fc polyclonal antibodies were immobilized onto a CMS chip (GE Life Sciences) using amine coupling chemistry (from Amine Coupling Kit, GE Life Sciences). The immobilization steps were carried out at a flow rate of 25 μL/min in 1×HBS-EP+buffer (GE Life Sciences; 10× Stock diluted before use). The sensor surfaces were activated for 7 min with a mixture of NHS (0.05 M) and EDC (0.2 M). The Anti-Fc antibodies were injected over all 4 flow cells at a concentration of 25 ug/ml in 10 mM sodium acetate, pH 4.5, for 7 min. Ethanolamine (1 M, pH 8.5) was injected for 7 min to block any remaining activated groups.\nOff-rate and kinetic binding experiments were performed at 25° C. using 1×HBS-EP+buffer. Test and control antibodies were injected over the anti-Fc surface at concentrations of 5-10 μg/mL for 12 seconds at a flow rate of 10 μL/min on flow cells 2, 3 and 4, followed by a buffer wash for 30 seconds at the same flow rate. […] After capturing ligand (antibody) on the anti-Fc surface, the analyte (hROR1, Fz or Kr domains, Acro Biosystems, Delaware) was bound for 180 seconds, followed by a 600 second dissociation phase at a flow rate of 50 μL/min. Between each ligand capture and analyte binding cycle, regeneration was carried out using 2 injections of 10 mM Glycine pH 2.0 for 30 seconds at 30 μL/min, followed by a 30 second buffer wash step.", "units": {"Kd": "nM", "koff": "s⁻¹", "kon": "M⁻¹ s⁻¹"}, "values": [{"binder": "B15", "Kd": 0.406, "koff": 0.000259, "kon": 639000}]}]}
